Laboratory results reported in patent publication US20230257449A1.

Target: polyclonal human IgG
Assay: BLI (Octet) polyreactivity

Row | Binder | poly reactivity octet max binding response (nm)
1 | FX-5-6-m3 (antibody, V domains shown) VH: QVQLVESGGGVVQPGRSLRLSCAASGFTFSTYAMHWVRQAPGKGLEWVCVISYDANYKYYADSVKGRFTCSRDNSKNTLYLQMNSLRAEDTAVYYCARDSRLRSLLYFEWLSQGYFDYWGQGTLVTVSS VL: EIVMTQSPATLSVSPGERATLSCRSSQSITFDYKNYLAWYQQKPGQAPRLLIYWGSTRATGIPARFSGSGSGTEFTLTISSLQSEDFAVYYCQQHYRTPPSFGQGTKVEIK | 1.13
2 | FX-10-6-m3 (antibody, V domains shown) VH: QVQLVQSGAEVKKPGSSVKVSCKASGFTFSTYAIHWVRQAPGQGLEWMGVISYDANYKYYAQKFQGRVTITRDNSKSTAYMELSSLRSEDTAVYYCARDSRLRSLLYFEWLSQGYFDYWGQGTTLTVSS VL: EIVMTQSPATLSVSPGERATLSCRSSQSITFDYKNYLAWYQQKPGQAPRLLIYWGSTRATGIPARFSGSGSGTEFTLTISSLQSEDFAVYYCQQHYRTPPSFGQGTKVEIK | 0.862
3 | FX-3-6-m3 (antibody, V domains shown) VH: QVQLVESGGGVVQPGRSLRLSCAASGFTFSTYAMHWVRQAPGKGLEWVAVISYDANYKYYADSVKGRFTISRDNSKNTLYLQMNSLRAEDTAVYYCAKDSQLRSLLYFEWLSQGYFDYWGQGTLVTVSS VL: EIVMTQSPATLSVSPGERATLSCRSSQSITFDYKNYLAWYQQKPGQAPRLLIYWGSTRATGIPARFSGSGSGTEFTLTISSLQSEDFAVYYCQQHYRTPPSFGQGTKVEIK | 0.774
4 | FX-7-6-m3 (antibody, V domains shown) VH: EVQLLESGGGLVQPGGSLRLSCAASGFTFSSYAMHWVRQAPGKGLEWVSVISYDANYKYYADSVKGRFTISRDNSKNTLYLQMNSLRAEDTAVYYCAKDSQLRSLLYFEWLSQGYFDYWGQGTTLTVSS VL: EIVMTQSPATLSVSPGERATLSCRSSQSITFDYKNYLAWYQQKPGQAPRLLIYWGSTRATGIPARFSGSGSGTEFTLTISSLQSEDFAVYYCQQHYRTPPSFGQGTKVEIK | 0.703
5 | FX-12-2-m3 (antibody, V domains shown) VH: QVQLVQSGAEVKKPGASVKVSCKASGFTFSTYAINWVRQATGQGLEWMGVISYDANYKYYAQKFQGRVTMTRDTSISTAYMELSSLRSEDTAVYYCARDSQLRSLLYFEWLSQGYFDYWGQGTTLTVSS VL: DIQMTQSPSSLSASVGDRVTITCRSSQSITFDYKNYLAWYQQKPGKAPKLLIYWGSSLQSGVPSRFSGSGSGTDFTLTISSLQPEDFATYYCQQHYRTPPSFGQGTKVEIK | 0.391
6 | FX-5-2-m3 (antibody, V domains shown) VH: QVQLVESGGGVVQPGRSLRLSCAASGFTFSTYAMHWVRQAPGKGLEWVCVISYDANYKYYADSVKGRFTCSRDNSKNTLYLQMNSLRAEDTAVYYCARDSRLRSLLYFEWLSQGYFDYWGQGTLVTVSS VL: DIQMTQSPSSLSASVGDRVTITCRSSQSITFDYKNYLAWYQQKPGKAPKLLIYWGSSLQSGVPSRFSGSGSGTDFTLTISSLQPEDFATYYCQQHYRTPPSFGQGTKVEIK | 0.992
7 | FX-6-2-m3 (antibody, V domains shown) VH: QVQLVESGGGVVQPGRSLRLSCAASGFTFDTYAMHWVRQAPGKGLEWVAVISYDANYKYYADSVKGRFTISRDNSKNTLYLQMNSLRAEDTAVYYCARDSRLRSLLYFEWLSQGYFDYWGQGTLVTVSS VL: DIQMTQSPSSLSASVGDRVTITCRSSQSITFDYKNYLAWYQQKPGKAPKLLIYWGSSLQSGVPSRFSGSGSGTDFTLTISSLQPEDFATYYCQQHYRTPPSFGQGTKVEIK | 0.798
8 | FX-3-3-m3 (antibody, V domains shown) VH: QVQLVESGGGVVQPGRSLRLSCAASGFTFSTYAMHWVRQAPGKGLEWVAVISYDANYKYYADSVKGRFTISRDNSKNTLYLQMNSLRAEDTAVYYCAKDSQLRSLLYFEWLSQGYFDYWGQGTLVTVSS VL: DIQMTQSPSSLSASVGDRVTITCRSSQSITFDYKNYLAWYQQKPGKAPKLLIYAASSLQSGVPSRFSGSGSGTDFTLTISSLQPEDFATYYCQQHYRTPPSFGQGTKVEIK | 0.485
9 | FX-10-2-m3 (antibody, V domains shown) VH: QVQLVQSGAEVKKPGSSVKVSCKASGFTFSTYAIHWVRQAPGQGLEWMGVISYDANYKYYAQKFQGRVTITRDNSKSTAYMELSSLRSEDTAVYYCARDSRLRSLLYFEWLSQGYFDYWGQGTTLTVSS VL: DIQMTQSPSSLSASVGDRVTITCRSSQSITFDYKNYLAWYQQKPGKAPKLLIYWGSSLQSGVPSRFSGSGSGTDFTLTISSLQPEDFATYYCQQHYRTPPSFGQGTKVEIK | 0.681
10 | FX-4-2-m3 (antibody, V domains shown) VH: QVQLVESGGGVVQPGRSLRLSCAASGFDFSTYAMHWVRQAPGKGLEWVAVISYDANYKYYADSVKGRFTISRDNSKNTLYLQMNSLRAEDTAVYYCARDSRLRSLLYFEWLSQGYFDYWGQGTLVTVSS VL: DIQMTQSPSSLSASVGDRVTITCRSSQSITFDYKNYLAWYQQKPGKAPKLLIYWGSSLQSGVPSRFSGSGSGTDFTLTISSLQPEDFATYYCQQHYRTPPSFGQGTKVEIK | 0.758
11 | FX-3-2-m3 (antibody, V domains shown) VH: QVQLVESGGGVVQPGRSLRLSCAASGFTFSTYAMHWVRQAPGKGLEWVAVISYDANYKYYADSVKGRFTISRDNSKNTLYLQMNSLRAEDTAVYYCAKDSQLRSLLYFEWLSQGYFDYWGQGTLVTVSS VL: DIQMTQSPSSLSASVGDRVTITCRSSQSITFDYKNYLAWYQQKPGKAPKLLIYWGSSLQSGVPSRFSGSGSGTDFTLTISSLQPEDFATYYCQQHYRTPPSFGQGTKVEIK | 0.521

Target: H1 HA (strain not stated) (influenza A virus H1)
Assay: HA binding EC50; column head not printed: H1 HA and pM inferred

Row | Binder | EC50 [pM]
12 | FX-76-1-m3 (antibody, V domains shown) VH: QVQLLETGGGLVKPGQSLKLSCAASGFTFTSFAMHWVRQPPGKGLEWVAVVSYDGNYKYYADSVQGRFTISRDNSKNTLYLQMNSLRAEDTAVYYCAKDSRRRSLLYFEWLSQGYFNPWGQGTTLTVSS VL: DIQMTQSPSSLSASVGDRVTITCRSSQSITFDYKNYLAWYQQKPGKAPKLLIYWGSYLESGVPSRFSGSGSGTDFTLTISSLQPEDFATYYCQQHYRTPPSFGQGTKVEIK | 3.8
